Laboratory results from patent US20110300138A1 (published 2011).

Molecular target: TSHR with Arg255 mutated to Ala, expressed in CHO cells (human) (UniProt P16473)
Assay: cell-based or functional assay

Chain of TSHR with Arg255 mutated to Ala, expressed in CHO cells (human) (P16473 other isoform, or with tags, fused parts or gaps, change not shown): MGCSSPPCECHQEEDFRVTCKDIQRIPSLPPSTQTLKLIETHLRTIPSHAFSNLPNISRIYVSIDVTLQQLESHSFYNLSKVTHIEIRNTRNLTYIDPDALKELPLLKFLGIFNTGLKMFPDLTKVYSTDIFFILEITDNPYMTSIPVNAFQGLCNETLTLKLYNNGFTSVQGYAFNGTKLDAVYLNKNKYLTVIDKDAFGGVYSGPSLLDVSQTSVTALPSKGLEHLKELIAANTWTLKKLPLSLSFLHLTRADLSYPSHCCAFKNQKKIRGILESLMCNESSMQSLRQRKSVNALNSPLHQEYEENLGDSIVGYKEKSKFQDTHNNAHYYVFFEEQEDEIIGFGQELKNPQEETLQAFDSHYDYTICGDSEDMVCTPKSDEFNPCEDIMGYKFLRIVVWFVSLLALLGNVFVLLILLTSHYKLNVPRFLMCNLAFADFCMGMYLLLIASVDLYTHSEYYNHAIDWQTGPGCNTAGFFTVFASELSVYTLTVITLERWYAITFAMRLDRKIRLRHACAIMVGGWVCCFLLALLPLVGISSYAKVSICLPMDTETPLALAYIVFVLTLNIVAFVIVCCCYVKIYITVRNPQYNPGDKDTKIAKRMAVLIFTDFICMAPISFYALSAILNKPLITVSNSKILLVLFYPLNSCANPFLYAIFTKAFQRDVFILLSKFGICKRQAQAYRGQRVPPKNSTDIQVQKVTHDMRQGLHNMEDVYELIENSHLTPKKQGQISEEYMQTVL

- % inhibition of TSH stimulation; 5B3 10 µg/mL: 12%
- % inhibition of TSH stimulation; 5B3 100 µg/mL: 2%
- Cyclic AMP produced; 5B3 10 µg/mL + TSH 3 ng/mL: 56.4 pmol/mL
- Cyclic AMP produced; 5B3 100 µg/mL + TSH 3 ng/mL: 62.5 pmol/mL
- Mutated/wild type (%) of cyclic AMP produced; 5B3 10 µg/mL + TSH 3 ng/mL: 75%
- Mutated/wild type (%) of cyclic AMP produced; 5B3 100 µg/mL + TSH 3 ng/mL: 92%
Substance: 5B3 IgG (antibody)
